Measured values from patent US20190144529A1 (UCB, published 2019).

target: T1, human serum albumin (human, UniProt P02768 25-609); experiment: SPR, Fab captured; albumin taken as HSA;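 note: antibody captured on the sensor surface, albumin injected for a 3 min association phase, then dissociation followed, with signals corrected against a blank flow cell and buffer-only injections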
T1 construct: mature; Bought purified serum albumin; also called HSA; Human albumin
Procedure: Each assay cycle consisted of firstly capturing the antibody sample using a 1 min injection, before an association phase consisting of a 3 min injection of albumin, after which dissociation was monitored. After each cycle, the capture surface was regenerated with two 1 min injections of 40 mM HCl followed by 30 s of 5 mM NaOH. The flow rates used were 10 μl/min for capture, 30 μl/min for both the association and dissociation phases, and 10 μl/min for regeneration. A blank flow-cell was used for reference subtraction and buffer-blank injections were included to subtract instrument noise and drift.

| Binder | Kd [nM] | koff [s⁻¹] | kon [M⁻¹ s⁻¹] |
| --- | --- | --- | --- |
| CA645 gL4gH31 Fab (Fab, V domains shown, Fab: human gamma1 CH1, human kappa (Km3); Kabat numbering) VH: EVQLLESGGGLVQPGGSLRLSCAVSGIDLSNYAINWVRQAPGKGLEWIGIIWAVGTTFYATWAKGRFTISRDNSKNTVYLQMNSLRAEDTAVYYCARTVPGYSTAPYFDLWGQGTLVTVSS VL: DIQMTQSPSSVSASVGDRVTITCQSSPSVWSNFLSWYQQKPGKAPKLLIYEASKLTSGVPSRFSGSGSGTDFTLTISSLQPEDFATYYCGGGYSSISDTTFGGGTKVEIK | 4.18 | 0.000167 | 40000 |
| CA645 gL18gH5 Fab (Fab, V domains shown, Fab: human gamma1 CH1, human kappa (Km3); Kabat numbering) VH: EVQLLESGGGLVQPGGSLRLSCAVSGIDLSNYAINWVRQAPGKGLEWIGIIWASGTTFYATWAKGRFTISRDNSKNTVYLQMNSLRAEDTAVYYCARTVPGYSTAPYFDLWGQGTLVTVSS VL: DIQMTQSPSSVSASVGDRVTITCQSSPSVWINFLSWYQQKPGKAPKLLIYEASKLTSGVPSRFSGSGSGTDFTLTISSLQPEDFATYYCGGGYSSISDTTFGGGTKVEIK | 15.5 | 0.000823 | 53200 |
| CA645 gL16gH5 Fab (Fab, V domains shown, Fab: human gamma1 CH1, human kappa (Km3); Kabat numbering) VH: EVQLLESGGGLVQPGGSLRLSCAVSGIDLSNYAINWVRQAPGKGLEWIGIIWASGTTFYATWAKGRFTISRDNSKNTVYLQMNSLRAEDTAVYYCARTVPGYSTAPYFDLWGQGTLVTVSS VL: DIQMTQSPSSVSASVGDRVTITCQSSPSVWWNFLSWYQQKPGKAPKLLIYEASKLTSGVPSRFSGSGSGTDFTLTISSLQPEDFATYYCGGGYSSISDTTFGGGTKVEIK | 3.06 | 0.000169 | 55300 |
| CA645 gL4gH33 Fab (Fab, V domains shown, Fab: human gamma1 CH1, human kappa (Km3); Kabat numbering) VH: EVQLLESGGGLVQPGGSLRLSCAVSGIDLSNYAINWVRQAPGKGLEWIGIIWALGTTFYATWAKGRFTISRDNSKNTVYLQMNSLRAEDTAVYYCARTVPGYSTAPYFDLWGQGTLVTVSS VL: DIQMTQSPSSVSASVGDRVTITCQSSPSVWSNFLSWYQQKPGKAPKLLIYEASKLTSGVPSRFSGSGSGTDFTLTISSLQPEDFATYYCGGGYSSISDTTFGGGTKVEIK | 6.18 | 0.00024 | 38900 |
| CA645 gL15gH5 Fab (Fab, V domains shown, Fab: human gamma1 CH1, human kappa (Km3); Kabat numbering) VH: EVQLLESGGGLVQPGGSLRLSCAVSGIDLSNYAINWVRQAPGKGLEWIGIIWASGTTFYATWAKGRFTISRDNSKNTVYLQMNSLRAEDTAVYYCARTVPGYSTAPYFDLWGQGTLVTVSS VL: DIQMTQSPSSVSASVGDRVTITCQSSPSVWRNFLSWYQQKPGKAPKLLIYEASKLTSGVPSRFSGSGSGTDFTLTISSLQPEDFATYYCGGGYSSISDTTFGGGTKVEIK | 4.62 | 0.000277 | 60100 |
| CA645 gL21gH5 Fab (Fab, V domains shown, Fab: human gamma1 CH1, human kappa (Km3); Kabat numbering) VH: EVQLLESGGGLVQPGGSLRLSCAVSGIDLSNYAINWVRQAPGKGLEWIGIIWASGTTFYATWAKGRFTISRDNSKNTVYLQMNSLRAEDTAVYYCARTVPGYSTAPYFDLWGQGTLVTVSS VL: DIQMTQSPSSVSASVGDRVTITCQSSPSVWENFLSWYQQKPGKAPKLLIYEASKLTSGVPSRFSGSGSGTDFTLTISSLQPEDFATYYCGGGYSSISDTTFGGGTKVEIK | 6.34 | 0.000323 | 51000 |
| CA645 gL4gH34 Fab (Fab, V domains shown, Fab: human gamma1 CH1, human kappa (Km3); Kabat numbering) VH: EVQLLESGGGLVQPGGSLRLSCAVSGIDLSNYAINWVRQAPGKGLEWIGIIWAQGTTFYATWAKGRFTISRDNSKNTVYLQMNSLRAEDTAVYYCARTVPGYSTAPYFDLWGQGTLVTVSS VL: DIQMTQSPSSVSASVGDRVTITCQSSPSVWSNFLSWYQQKPGKAPKLLIYEASKLTSGVPSRFSGSGSGTDFTLTISSLQPEDFATYYCGGGYSSISDTTFGGGTKVEIK | 11 | 0.000422 | 38500 |
| CA645 gL19gH5 Fab (Fab, V domains shown, Fab: human gamma1 CH1, human kappa (Km3); Kabat numbering) VH: EVQLLESGGGLVQPGGSLRLSCAVSGIDLSNYAINWVRQAPGKGLEWIGIIWASGTTFYATWAKGRFTISRDNSKNTVYLQMNSLRAEDTAVYYCARTVPGYSTAPYFDLWGQGTLVTVSS VL: DIQMTQSPSSVSASVGDRVTITCQSSPSVWDNFLSWYQQKPGKAPKLLIYEASKLTSGVPSRFSGSGSGTDFTLTISSLQPEDFATYYCGGGYSSISDTTFGGGTKVEIK | 5 | 0.00026 | 52000 |

More lines, now with the values ahead:

| Kd [nM] | koff [s⁻¹] | kon [M⁻¹ s⁻¹] | Binder |
| --- | --- | --- | --- |
| 4.38 | 0.000169 | 38600 | CA645 gL4gH32 Fab (Fab, V domains shown, Fab: human gamma1 CH1, human kappa (Km3); Kabat numbering) VH: EVQLLESGGGLVQPGGSLRLSCAVSGIDLSNYAINWVRQAPGKGLEWIGIIWAIGTTFYATWAKGRFTISRDNSKNTVYLQMNSLRAEDTAVYYCARTVPGYSTAPYFDLWGQGTLVTVSS VL: DIQMTQSPSSVSASVGDRVTITCQSSPSVWSNFLSWYQQKPGKAPKLLIYEASKLTSGVPSRFSGSGSGTDFTLTISSLQPEDFATYYCGGGYSSISDTTFGGGTKVEIK |
| 14.3 | 0.000794 | 55500 | CA645 gL20gH5 Fab (Fab, V domains shown, Fab: human gamma1 CH1, human kappa (Km3); Kabat numbering) VH: EVQLLESGGGLVQPGGSLRLSCAVSGIDLSNYAINWVRQAPGKGLEWIGIIWASGTTFYATWAKGRFTISRDNSKNTVYLQMNSLRAEDTAVYYCARTVPGYSTAPYFDLWGQGTLVTVSS VL: DIQMTQSPSSVSASVGDRVTITCQSSPSVWQNFLSWYQQKPGKAPKLLIYEASKLTSGVPSRFSGSGSGTDFTLTISSLQPEDFATYYCGGGYSSISDTTFGGGTKVEIK |
| 15.1 | 0.000399 | 26500 | CA645 gL4gH35 Fab (Fab, V domains shown, Fab: human gamma1 CH1, human kappa (Km3); Kabat numbering) VH: EVQLLESGGGLVQPGGSLRLSCAVSGIDLSNYAINWVRQAPGKGLEWIGIIWAEGTTFYATWAKGRFTISRDNSKNTVYLQMNSLRAEDTAVYYCARTVPGYSTAPYFDLWGQGTLVTVSS VL: DIQMTQSPSSVSASVGDRVTITCQSSPSVWSNFLSWYQQKPGKAPKLLIYEASKLTSGVPSRFSGSGSGTDFTLTISSLQPEDFATYYCGGGYSSISDTTFGGGTKVEIK |
| 8.58 | 0.000478 | 55700 | CA645 gL22gH5 Fab (Fab, V domains shown, Fab: human gamma1 CH1, human kappa (Km3); Kabat numbering) VH: EVQLLESGGGLVQPGGSLRLSCAVSGIDLSNYAINWVRQAPGKGLEWIGIIWASGTTFYATWAKGRFTISRDNSKNTVYLQMNSLRAEDTAVYYCARTVPGYSTAPYFDLWGQGTLVTVSS VL: DIQMTQSPSSVSASVGDRVTITCQSSPSVWHNFLSWYQQKPGKAPKLLIYEASKLTSGVPSRFSGSGSGTDFTLTISSLQPEDFATYYCGGGYSSISDTTFGGGTKVEIK |
| 14.8 | 0.000814 | 54900 | CA645 gL23gH5 Fab (Fab, V domains shown, Fab: human gamma1 CH1, human kappa (Km3); Kabat numbering) VH: EVQLLESGGGLVQPGGSLRLSCAVSGIDLSNYAINWVRQAPGKGLEWIGIIWASGTTFYATWAKGRFTISRDNSKNTVYLQMNSLRAEDTAVYYCARTVPGYSTAPYFDLWGQGTLVTVSS VL: DIQMTQSPSSVSASVGDRVTITCQSSPSVWLNFLSWYQQKPGKAPKLLIYEASKLTSGVPSRFSGSGSGTDFTLTISSLQPEDFATYYCGGGYSSISDTTFGGGTKVEIK |
| 5.5 | 0.000323 | 58800 | CA645 gL17gH5 Fab (Fab, V domains shown, Fab: human gamma1 CH1, human kappa (Km3); Kabat numbering) VH: EVQLLESGGGLVQPGGSLRLSCAVSGIDLSNYAINWVRQAPGKGLEWIGIIWASGTTFYATWAKGRFTISRDNSKNTVYLQMNSLRAEDTAVYYCARTVPGYSTAPYFDLWGQGTLVTVSS VL: DIQMTQSPSSVSASVGDRVTITCQSSPSVWNNFLSWYQQKPGKAPKLLIYEASKLTSGVPSRFSGSGSGTDFTLTISSLQPEDFATYYCGGGYSSISDTTFGGGTKVEIK |
